In patent US20050208482A1, “Tat-based immunomodulatory compositions and methods for their discovery and use” (priority 2004, published 2005):

Legend:
[1] = system: monocytes committed to the dendritic cell (DC) lineage; experiment: Tat induction of CD86 on monocytes committed to the DC lineage (FACScan); assay type: cell-based, Human; settings: committed DCs cultured overnight; Tat 50 nM, LPS 100 ng/mL; Control MFI 9
Protocol: An additional embodiment of the present invention is that Tat induces monocytes committed to the dendritic cell (DC) lineage to enlarge into activated, CD86+DC APCs (FIG. 1). Human monocytes enriched from PBMCs by Percoll density gradient separation and adherance to anti-CD14 coated magnetic beads (Dynabeads M-450, Dynal Biotech) were committed to differentiate into DCs through five days of culture in GM-CSF (100 ng/mL) and IL-4 (100 ng/mL). Committed DCs were cultured overnight either in medium alone (Control), LPS (100 ng/mL), or Tat (50 nM), after which they were stained with an anti-CD86 antibody (BD Pharmingen) and analyzed by FACScan for CD86 induction (left panel) or generalized activation (right panel, enlargement into box R2, shown for Tat-stimulated cells). The MFIs for CD86 expression are 9 (Control), 30 (LPS), and 187 (Tat), CD86 being a specific determinant of DC activation.

[2] = system: Human monocytes; experiment: Tat activation of monocytes/macrophages, Fas ligand (FasL) induction by flow cytometry; assay type: cell-based
Protocol: Tat activation of monocytes is dose-dependent and saturatable (FIG. 3). Human monocytes were cultured in increasing concentrations of recombinant Tat for six days at which time they were assayed for Fas ligand (FasL) induction as a measure of activation by using flow cytometry (FACScan, Becton Dickinson) to quantitate the intensity of staining (mean fluorescence index (MFI)) with an anti-Fas ligand monoclonal antibody (Nok 1, BD Pharmingen).

[3] = system: CD4+T cells; experiment: Direct apoptosis of CD4+ T cells by Tat; assay type: cell-based
[4] = system: T cells; experiment: T cell activation by Tat; assay type: cell-based; settings: 50 nM Tat
[5] = system: antibody response to p24; experiment: Suppression of humoral immune response to HIV-1 p24 in immunized mice (ELISA); assay type: in vivo; settings: 5 μg p24 + 5 μg Tat in complete Freund's adjuvant s.c.
Protocol: Tat suppresses the antigen-specific humoral immune response to HIV-1 p24 (FIG. 4). At week 0, mice (4 in each group) were immunized with 5 μg recombinant p24 protein (Chiron, Emeryville, Calif.) and either 5 μg recombinant Tat protein (PT) or 5 μg recombinant ox-Tat* protein (Ag) mixed in 100 μL complete Freund's adjuvant and administered subcutaneously in the flank. Following immunization, sera were collected every other week for 10 weeks and assayed for a specific antibody response to p24 by commercially available ELISA (Abbott Laboratories, Abbott Park, Ill.). […] This response was maintained for at least 6 weeks. The antibody titers at 6 weeks are approximately ten times greater than at week 2 due to maturation of the immune response.

[6] = system: Human PBMCs; assay type: cell-based

## lipopolysaccharide [LPS, reference compound]
[1]
  MFI for CD86 expression: 30

B1: Tat: conventional immunosuppressive HIV-1 trans-activator of transcription protein, recombinant (SEQ ID NO. 2) (protein)
chain: MEPVDPRLEPWKHPGSQPKTACTTCYCKKCCFHCQVCFTKKALGISYGRKKRRQRRRAPEDSQTHQVSPPKQPAPQFRGDPTGPKESKKKVERETETHPVD
modifications: Human immunodeficiency virus type 1
[1]
  MFI for CD86 expression: 187
[2]; FasL-inducing macrophage effect
  concentration of Tat that triggers the effect on the macrophages: 500 pM
[2]; six days culture, FasL MFI, higher concentrations did not increase MFI
  plateau stimulatory concentration for APCs: 50 nM
[3]
  concentration required to initiate direct apoptosis of CD4+T cells: approximately 500 nM
[4]
  T cell activation: could not be activated
[5]
  duration for which suppression of p24 antibody response was maintained: at least 6 weeks
[5]; compared with ox-Tat* control
  p24 antibody titer at 2 weeks: completely suppressed
[6]
  proliferation (stimulation index) relative to antigen treatment alone: 141%
[6]; with further addition of anti-IL-10 and anti-IL-6 antibodies to the cultures
  reversal of Tat suppression, proliferation as % of control: > 95 % of control
